Laboratory results reported in the DeepSol protein solubility set.

Assay: soluble on expression in E. coli; label from the status in PepcDB or PDB records
With “MAHHHHHHMSVIGVFSKGRATGHASVMSVLRYVPRARVPWQPSRFGRENLADDDMAQLWGTGRYRTGPGNYNSGYSTKKTHALEDSTVSIIPKHELEKFMPDISLGSKALVTPVSLMSARNGHRVTHDLIHSYDPYIGRLQKPAVVDHDNITVEDPNRVGLNAATLDCRSRIYRWLRRGPFFQEDNYFRRSTKLQRNGPVPVSVHEVPLMQRIIRLARRGHLKAACEEYRRVTSVPPVDVYRALTAACVPGAKLADAIAIFEDGHSRLFYVARDGEVLHNMLRCAIRAKHRVRVMWVYNVMVGRHYENVVVRAEVDVIWRYRIASLALEYLLDSNAGEEARTVYDYLVENELVDCDLHVRLGHVMQQALKEGKTVHVQQDALDGMALSQNVVAVAPQVAVAVYARYLETMQEGAAWTDARGLPLTDPAKTGADTNGAAAVAWLKAAFPDIDPVAVLRLARFRRSSKDLMAKDRPVYVQRAAQWVELLSSAHQTREEAPLTYLRKSRPSMANPNVRVAWLPERQRAHALLASDEGFKFAYAGPHTRFVEETFAYGENTLQSRYLAQQPVHTEVTPSVALGAAAVAAGMSSGSALPRLPGSSAAPQILHASVLLDGSLNGSSGSGTSTLRSGRNESAKAAASPTAGISSRPSSASSSAGLDDTHF” the “soluble on expression in E. coli” value was “not soluble”.
In the case of “MSLSLDTAREAVQKKPLLYDKGGEEHYNVISAFIKSMRGSDPDGALYWLARMIEAGEDPIFILRRMVILASEDIGNADPRALQVAVTALQGFQLVGMPEGRIIIGQAVTYLATAPKSNASYVGIDAALAEVRKSGALPVPLHIRNAPTRLMKDLGYGTGYRYAHDYAEGYVAQDYLPDQIKGRKYYDPTGHGYEKSIKERMEWLKGKKEGHHHHHH”, the “soluble on expression in E. coli” value is reported as “not soluble”.
For “AHHHHHHGSIPIAKPLIGEEEINAVIEVLKSGMLAHGKEVEAFEREFASYIGVKHGIAVVNGTAALDIALKALKIKPGDEIITTPFTFIASANAILFQGAKPVFADIDPKTYNLDPDEVLEKINEKTKAIIVVHLYGQPADMKAFKEIAEDYKLYLIEDCAQAHGAEFEGQKVGTFGDIAAFSFYPTKNMTTGEGGMVLTNDDELARRARLIRNHGQTEKYLHEELGYNLRMTNIAAALGRVQLRKLDKWNEIRIENAELLTKGIKRIKGLTPPYVDKRVKHVFHQYVIRVEDDFPLTRDELREKLMEKGIGTAVHYPMPVHHQPLYQRLGYSKDCCPNAIEASKRVLSLPVHPAVSKEDINYIIRTLEELG”, the “soluble on expression in E. coli” value was “not soluble”.
With “MAHHHHHHMEYMHHIQGVVVLNDSGNRVFVKYYLNEDMKARGVLTTLEKQRALERVIYDAVSAPKRNWAASKDGDIVLHDVHSILFHVWGSITFAIVGDIKENEMVMHTVLRCIVDALQRILKTQDITHKGILEKYDALVLAVDEVIDDGIVLETSAQNVADDVAPFMADAETDTARSALSKVNEYLKENL” the “soluble on expression in E. coli” value was “soluble”.
In the case of “SNAMSDSDAMTDPNAVSYSNAIVVLCTAPDEASAQNLAAQVLGEKLAACVTLLPGATSLYYWEGKLEQEYEVQLLFKSNTDHQQALLTYIKQHHPYQTPELLVLPVRDGDKDYLSWLNASLL”, the “soluble on expression in E. coli” value is reported as “soluble”.
With “MPQPAARVTDMHVCPMVTPGLPPVPHVGGPLLPPGSPSVFIGGLPAATLGTLALCSGPVDVVIMGSVKVLICGKPAARMGDICAHGGTIVSGYPQVLIG” the “soluble on expression in E. coli” value was “not soluble”.
With “GSEEHCAPNKEPVKYGELVVLGYNGALPNGDRGRRKSRFALYKRPKANGVKPSTVHVISTPQASKAISCKGQHSISYTLSRNQTVVVEYTHDKDTDMFQVGRSTESPIDFVVTDTISGSQNTDEAQITQSTISRFACRIVCDRNEPYTARIFAAGFDSSKNIFLGEKAAKWKNPDGHMDGLTTNGVLVMHPRGGFTEESQPGVWREISVCGDVYTLRETRSAQQRGKLVESETNVLQDGSLIDLCGATLLWRTADGLFHTPTQKHIEALRQEINAARPQCPVGLN” the “soluble on expression in E. coli” value was “soluble”.
With “GAHMADLSLEKAAEVSWEEEAEHSGASHNILVEVQDDGTMKIKDEERDDTLGGGGSGGGGSGVLWDTPSPGIYRILQRGLLGRSQVGVGVFQEGVFHTMWHVTRGAVLMYQGKRLEPSWASVKKDLISYGGGWRFQGSWNAGEEVQVIAVEPGKNPKNVQTAPGTFKTPEGEVGAIALDFKPGTAGSPIVNREGKIVGLYGNGVVTTSGTYVSAIAQAKASQEGPLPEIEDEVFRK” the “soluble on expression in E. coli” value was “soluble”.
For “MSLTTIIFDNGGHNMKIGTIDSESPRLVPNSIVKAKHEKKRVFVAHEQEECSDKFSLFYVRPIERGYVVNWDTQQQIWEKTFGSMDVEASTSRIALTDNNYLIPALPDVSSEILFDYFGFTEVHKTSASTLVAKHSNKINNEKCAVVVDSGFSWTTVASFVNGMLIQDSVIRIDVGGKALTNKLKDWVSYRQLNVSEETYVINECKEDLCFVSQNFDESMKEARNRFQENTTMKRYIMPDFHSTFRGVVKDVKEPHDPQIPSIHLGVERFAIPEILFNPSDIDIDQCGVAEAVIESICQCPEALRPALAENIIVIGGSSCFPGFRERLEREVRSMLPAEYGLNVSNDVINPQTHSWHCGQELLTASKVPWINRKDWDERGDSLEFSNFFQTLVQSDELKGTRNFDDQREKSPKEDEDF”, the “soluble on expression in E. coli” value was “not soluble”.
For “MGSDKIHHHHHHMSGHKCYPWDLQDRYAQDKSVVNKMQQKYWETKQAFIKATGKKEDEHVVASDADLDAKLELFHSIQRTCLDLSKAIVLYQKRICFLSQEENELGKFLRSQGFQDKTRAGKMMQATGKALCFSSQQRLALRNPLCRFHQEVETFRHRAISDTWLTVNRMEQCRTEYRGALLWMKDVSQELDPDLYKQMEKFRKVQTQVRLAKKNFDKLKMDVCQKVDLLGASRCNLLSHMLATYQTTLLHFWEKTSHTMAAIHESFKGYQPYEFTTLKSLQDPMKKLVEKEEKKKINQQESTDAAVQEPSQLISLEEENQRKESSSFKTEDGKSILSALDKGSTHTACSGPIDELLDMKSEEGACLGPVAGTPEPEGADKDDLLLLSEIFNASSLEEGEFSKEWAAVFGDGQVKEPVPTMALGEPDPKAQTGSGFLPSQLLDQNMKDLQASLQEPAKAASDLTAWFSLFADLDPLSNPDAVGKTDKEHELLNA”, the “soluble on expression in E. coli” value was “not soluble”.
With “MSTARFADPDQIRAGFSRAMSQMYQHEVPLYGTLMELVSEVNAQVMSRDSQVLNSLRQTGEIQRLDMERHGAIRVGTAQELATLARLFAVMGMQPVGYYDLTAAGVPVHSTAFRAVHEQALQVSPFRVFTSLLRLELIESDSLREFASRVLAKRTIFTPGALALIEKHEADGGLSEPDAAEFIQQALETFRWHHTATVSLDEYRQLNAQHRLIADVVAFRGPHINHLTPRTLDIDAVQSGMPGKGITPKAVVEGPPPRQCPILLRQTSFKALEEPISFIGQGGSQSGSHSARFGEIEQRGAALTPKGRELYDRLLNEARDALGEFPNEANAVRYAGLLEKAFQAFPDSHDEMRAQGLAYFRYFPTDTGVAVRVSGTLEQLIEAGHVRFEPLAYEDFLPVSAAGIFQSNLGDNAQAHYAANSNRQDFERALGRGTLDELALYADTQRRSLEDCAEVLGLNESLEHHHHHH” the “soluble on expression in E. coli” value was “not soluble”.
With “INQYNQKKSQEYTDMQLLLQKESDFAQYYEMILSQSENQSILIHDIKKHLQSIKLLNEKNDSDKINAYIQQLLESSDLKETSKICDNEMLNAILCRYQRQCNEKHIVFHTDIRSDTVQNIYQHDLTSLFCNLLDNALESADNIPDSFIELTVEKKENSPFIIIILINSCRSTPVYDQDGLPVSHKANKGRHGFGIKSIKKVVKQYHGNLQMYYDNDSGTFHTIITLKQ” the “soluble on expression in E. coli” value was “not soluble”.
In the case of “MGSDKIHHHHHHMRFEEAGCHGEFIQADLTKLPFSEPKFDVIFSEGVLHHTDSTEKAIKYLTTLLIPGGHFLFYVYKTKAPIREFTDDYVRNQLINMDDSQAWNELRSLTLLGKILGDLNIEVEIPEPILLLGIPAGRINIQRLFYWYICKAFYNPEWTIDEMNHVNFDWYRPLNCHRHTPEEIMTWCNQAGLKIERMNVQEAGITVVAKKE”, the “soluble on expression in E. coli” value is reported as “not soluble”.
With “MNALLRFTLGLCSMTLLAGCGENIDHSKIRSSGFVYCGESAPTTFNPQLADNDITSDALGPQIYNTLLTIDPETHLPVASLASSWTVNSTGLEYVFKLRPDVAFQTTPWFSPTRPLNADDVVFSFRRIIDPTNPYHKVGQTQYPWFKGIDFQNLLVDVSALDDLTVKFVLSRPDNSFLSNIATSHAVILSLEYANQLIIDDEKEKLDNLPLGTGPFYLAEYHPRDLIRLKRHPQYWEGAAKVEQVVFDISQRGTGMLAKLLRNECDVLNAPISSQLPAIEKNPDIVLQTTPAMNVAFIAVNTQHPALNDNRVRKALNFAINRQNILDSVYYGTGSIAFTILPPTSWAYQQDTAQIRYDRNYAQALLREAGFATGLELTMSVPVEPKAYNPSPRKTAELIQANLADIGVTLRLISEDRSERQELSIRNNIDLYLSGWTGDTGDPDNFLRPLLSCDSNRAGLNVSMWCDSDFDFLLDLALEANKPRYRLNLYHQAQNILNQEFPVIPLAHGIQFTAYSKSLTGIRISPFNVQPFNTVERVAE” the “soluble on expression in E. coli” value was “not soluble”.
For “MAHHHHHHMAEIHQDKTESAVSSSGILKNVVRHSPKVSSKEIEDSEIRIVKMAHEEENRKLQKMGKCAKDYTLPCPKFWKKKIMNKSENICIASSSYNGFCTPRQSFDNFTKSEKMKFETSCNVEWGCRNVVADACESGKRNYNEPCPEGFISQNDNTCMADLTVYDGLCNGQKIDFTHLTNDEKQNWSVACEAYWPCYIDCSLNNKALSTCPSNWKEINSYECIPPYSYNGPCKDTKNFKFFNELMKKKFEEKCKVTFVCTDLCEKNYRQECPLHWMKEGGYCLAPPSFNLCDRKKYLYSNLTQEEEKKKFEQECSVQWPCQKTSFCDMDWTAECPLNWVKEVPRQGRDQEGGDKYICTADSSLYRGRCAFISLPNGADEETKRELASTCDTPWPCSATGATAGAPEEGGPVPRSDSKIVERRNSAFTNGPVTFQGDVRTNGGPTYRVVDSQGDVSLADIMR”, the “soluble on expression in E. coli” value was “not soluble”.
In the case of “MGSDKIHHHHHHMGDAGGAGGNNMNIKQAKNEVKNTVKAYLSKDAHGEYVIPQIRQRPMLLIGPPGVGKTQIMEQIARECKIGLVAYTITHHTRQSAVGLPFIKEREYDGKSYSVTEYTMSEIIASVYEKMEATGLKEGILFIDEINCVSETLAPTMLQFLQCKTFGNQAVPKGWVIVAAGNPPEYNKSVRDFDMVTLDRVRYISIEADYQVWKEYARDVHIHDALLSYLELHPNNFYRVETDVDGMNFVTARGWEDLSSLLKVYEAGELAVTEEVIGEFIHHPDIAEDVYAYLEIYRKYNEDYGISDILSGNVKKSVYKRVFDADFDERITVVNLLLSGLTVVFSDVARERKMVQLWYEFLKEYRKSQRSTEEQHALYNSAVEQFSKNMEILKESSLILPKEYYIRQDVLKHIKGDFDTVMDDFTEESEKLSTMEDAAGEKLNHAFDFVEDVFSDDQEMLVFVTELTITPEISSFLAENECEKFDIYNEKLMVGSNRTRLLKELER”, the “soluble on expression in E. coli” value is reported as “not soluble”.
With “MVKLHLKTTCREVPIEEIISTGQIQFFKHLSESTSEFKDQKNVERFRLIYNGRALNEESLKKITDADSIRVVLLPPLKTNNHIEEEQKNRISIALKECTAPYTRPNDRRLHGFNHDFALPDHMTTLLEKHPQLVHDNQFLSVLSDWSLFRAYCVQNDFKDDPIRGQFMYTNPDFLKVVENILSTVGSRYGYENLDYANVERNRPGMLAAQRPIGGAQPVTHALLQNALQAALANIAVPPANRVPAPANVQPAQQQQEEPMQQGYEQQAATLREFGFENDELIQLALEQANGDVQAAMEFLIDLQN” the “soluble on expression in E. coli” value was “not soluble”.
With “GHMLVYNQEELVRFVEEAKQYARYGKVADYIPALGKANPNELSIAIYTPDDEVVSAGDVTVKVTLQSISKIIALALVLIDRGEDEVFHKVGMEPTDYPFHSIAKLEEKPAKPLNPMINAGALVVTSMIQGGSVSERLERLLAFVRRLAGNERISYSDEVARSEFETAFLNRSLCYFLKQHRIIDEDVEELMELYTKQCAIEMTCIDLARIGLVLALDGRDPHSSEPLMPLDVARICKTFMVTCGMYNSSGEFAIKVGIPAKSGVSGGILAAVPGRCGIGVFGPALDDKGNSLTGVKLLERLSKTYSLSIF” the “soluble on expression in E. coli” value was “soluble”.
